B3: GST-Exo84 (aa 1–326) (domain or fragment)
chain: MVEFSLKKARNNWKHVKKSASSPAKQKTPPSPAKPKQKTKKNPYSDLKDPATSYTLPTINARERSRVATSMQRRLSIHNTNYAPPTLDYSMPLPDMPNMIVPNDNVDSSHNNSSFTTENESVSSKGPSNSLNLSTADLSLNDSSYNKVPARSAMRNTVNPSGSNDPFNNSTSLRKMLANPHFNAKDFVHDKLGNASAITIDKFTSNLTDLSIQVQEEVKLNINKSYNEIMTVNNDLNVAMLELKRVRANINDLNEVLDQCTKIAEKRLQLQDQIDQERQGNFNNVESHSNSPALLPPLKAGQNGNLMRRDRSSVLILEKFWDTELD

Holding throughout (test): pull-down
Assay [1] has as its target B3.
Assay [2] concerns the target His-tagged Exo84 (aa 1–326) (S. cerevisiae, UniProt P38261 1-326).
For assay [3], the target named is T1, Sro7 (full length) (yeast, UniProt Q12038 1-1033).
T1 sequence: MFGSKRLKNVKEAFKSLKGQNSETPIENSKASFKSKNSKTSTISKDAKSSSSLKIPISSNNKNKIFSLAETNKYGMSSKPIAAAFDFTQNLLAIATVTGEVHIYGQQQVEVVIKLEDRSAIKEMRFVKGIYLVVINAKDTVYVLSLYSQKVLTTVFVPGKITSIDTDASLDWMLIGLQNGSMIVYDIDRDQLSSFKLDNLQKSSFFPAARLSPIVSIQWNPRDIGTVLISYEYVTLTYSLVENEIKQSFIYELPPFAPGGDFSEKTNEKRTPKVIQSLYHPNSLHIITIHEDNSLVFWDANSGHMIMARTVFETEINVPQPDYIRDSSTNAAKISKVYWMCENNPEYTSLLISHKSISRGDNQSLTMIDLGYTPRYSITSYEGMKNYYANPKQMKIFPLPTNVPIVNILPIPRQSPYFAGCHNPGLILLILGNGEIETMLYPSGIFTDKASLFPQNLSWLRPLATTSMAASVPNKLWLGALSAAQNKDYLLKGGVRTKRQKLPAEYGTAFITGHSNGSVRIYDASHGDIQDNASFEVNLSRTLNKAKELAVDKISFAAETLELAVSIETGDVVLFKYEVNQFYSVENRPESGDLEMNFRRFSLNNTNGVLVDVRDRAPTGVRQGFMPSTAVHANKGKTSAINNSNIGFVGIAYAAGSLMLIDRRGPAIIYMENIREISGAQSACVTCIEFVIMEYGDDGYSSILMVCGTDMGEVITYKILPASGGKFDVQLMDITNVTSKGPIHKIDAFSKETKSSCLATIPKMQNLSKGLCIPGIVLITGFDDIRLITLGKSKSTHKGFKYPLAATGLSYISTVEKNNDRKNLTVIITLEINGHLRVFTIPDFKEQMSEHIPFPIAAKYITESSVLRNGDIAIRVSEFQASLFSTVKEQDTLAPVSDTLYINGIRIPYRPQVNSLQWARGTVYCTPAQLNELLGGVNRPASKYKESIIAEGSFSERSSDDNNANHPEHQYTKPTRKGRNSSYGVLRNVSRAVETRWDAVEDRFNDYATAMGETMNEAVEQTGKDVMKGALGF

B1: His-tagged Sro7-NT (aa 1–90) (domain or fragment)
chain: MFGSKRLKNVKEAFKSLKGQNSETPIENSKASFKSKNSKTSTISKDAKSSSSLKIPISSNNKNKIFSLAETNKYGMSSKPIAAAFDFTQN
Take B1: the binding result in assay [1] is “binds”.

B2: C-terminally tagged GST-Sro7-NT (aa 1–79) (domain or fragment)
chain: MFGSKRLKNVKEAFKSLKGQNSETPIENSKASFKSKNSKTSTISKDAKSSSSLKIPISSNNKNKIFSLAETNKYGMSSK
Consider B2, for which the binding result in assay [2] was “binds”.

In the case of B3, the binding result in assay [3] is given as “binds”.
